Data reported in US20260055369A1 (H LEE MOFFITT CANCER CENTER AND RESEARCH INSTITUTE, published 2026).

Legend:
[1] = target: T1, Notch1 on CHO-K1 N1-Gal4 fluorescent reporter cells (UniProt P46531 19-2555, limits assumed); assay: cell-based or functional assay
[2] = target: T2, mouse Notch1 (EGF6-13, residues 221-526), biotinylated (mouse, UniProt Q01705 221-526, Biotinylated in vitro by BirA at the C-terminal BAP-tag (tag not in the letters).); assay: SPR steady-state binding isotherm, biotinylated mNotch1 (EGF6-13) on a streptavidin chip, DLL4 variant as analyte, response normalized to the maximum (100%)
T2 construct: Immobilised on a streptavidin chip for SPR; also called mNotch1 EGF6-13; mNotch1 (6-13)
T2 sequence: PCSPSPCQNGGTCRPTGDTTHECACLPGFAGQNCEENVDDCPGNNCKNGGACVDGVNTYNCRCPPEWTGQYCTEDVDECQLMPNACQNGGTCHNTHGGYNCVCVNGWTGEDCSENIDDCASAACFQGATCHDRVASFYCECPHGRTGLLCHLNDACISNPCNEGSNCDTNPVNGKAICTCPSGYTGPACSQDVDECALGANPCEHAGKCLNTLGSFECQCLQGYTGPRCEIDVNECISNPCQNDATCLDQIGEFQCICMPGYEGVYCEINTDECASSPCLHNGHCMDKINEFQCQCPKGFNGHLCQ
Description: Extended Data FIG. 5. Quantitation of mNotch1 binding to DLL4 variants, ligand adsorption, and Notch surface expression. a, SPR binding isotherms were fitted to a 1:1 binding model to determine the binding affinity between mNotch1 (6-13) and each DLL4 variant. b, Determination of plate adsorption for WT DLL4 and Delta^MAX by ELISA. Data represent mean values±s.d. of three biological replicates. c, Binding assay of WT DLL4 and Delta^MAX tetramers to Notch1 overexpressing CHO-K1 N1-Gal4 cells was measured by flow cytometry. Data represent mean values±s.d. of three biological replicates. d, The level of Notch1 expression on the surface of cell lines used in this study was determined by flow cytometry. Data represent mean values±s.d. of three biological replicates. e, Percentage of CD8⁺ T cells expressing Notch1 (upper graph) and Notch2 (bottom graph) on cell surface determined by flow cytometry after stimulation with K32-WT DLL4, K32-Delta^MAX, or K32 for 96 hours. Data represent mean values±s.e.m. of three biological replicates. Delta^MAX statistics are referred to WT DLL4. *P<0.05, ****P<0.0001 (Two-way ANOVA).
Equilibrium dissociation constants were determined by surface plasmon resonance using a Biacore T200 instrument (GE Healthcare). […]

[3] = target: Notch3 on U2OS Notch3-Gal4 luciferase reporter cells (human, UniProt Q9UM47 40-2321); assay: cell-based or functional assay
Notch3 on U2OS Notch3-Gal4 luciferase reporter cells, sequence (Q9UM47 40-2321): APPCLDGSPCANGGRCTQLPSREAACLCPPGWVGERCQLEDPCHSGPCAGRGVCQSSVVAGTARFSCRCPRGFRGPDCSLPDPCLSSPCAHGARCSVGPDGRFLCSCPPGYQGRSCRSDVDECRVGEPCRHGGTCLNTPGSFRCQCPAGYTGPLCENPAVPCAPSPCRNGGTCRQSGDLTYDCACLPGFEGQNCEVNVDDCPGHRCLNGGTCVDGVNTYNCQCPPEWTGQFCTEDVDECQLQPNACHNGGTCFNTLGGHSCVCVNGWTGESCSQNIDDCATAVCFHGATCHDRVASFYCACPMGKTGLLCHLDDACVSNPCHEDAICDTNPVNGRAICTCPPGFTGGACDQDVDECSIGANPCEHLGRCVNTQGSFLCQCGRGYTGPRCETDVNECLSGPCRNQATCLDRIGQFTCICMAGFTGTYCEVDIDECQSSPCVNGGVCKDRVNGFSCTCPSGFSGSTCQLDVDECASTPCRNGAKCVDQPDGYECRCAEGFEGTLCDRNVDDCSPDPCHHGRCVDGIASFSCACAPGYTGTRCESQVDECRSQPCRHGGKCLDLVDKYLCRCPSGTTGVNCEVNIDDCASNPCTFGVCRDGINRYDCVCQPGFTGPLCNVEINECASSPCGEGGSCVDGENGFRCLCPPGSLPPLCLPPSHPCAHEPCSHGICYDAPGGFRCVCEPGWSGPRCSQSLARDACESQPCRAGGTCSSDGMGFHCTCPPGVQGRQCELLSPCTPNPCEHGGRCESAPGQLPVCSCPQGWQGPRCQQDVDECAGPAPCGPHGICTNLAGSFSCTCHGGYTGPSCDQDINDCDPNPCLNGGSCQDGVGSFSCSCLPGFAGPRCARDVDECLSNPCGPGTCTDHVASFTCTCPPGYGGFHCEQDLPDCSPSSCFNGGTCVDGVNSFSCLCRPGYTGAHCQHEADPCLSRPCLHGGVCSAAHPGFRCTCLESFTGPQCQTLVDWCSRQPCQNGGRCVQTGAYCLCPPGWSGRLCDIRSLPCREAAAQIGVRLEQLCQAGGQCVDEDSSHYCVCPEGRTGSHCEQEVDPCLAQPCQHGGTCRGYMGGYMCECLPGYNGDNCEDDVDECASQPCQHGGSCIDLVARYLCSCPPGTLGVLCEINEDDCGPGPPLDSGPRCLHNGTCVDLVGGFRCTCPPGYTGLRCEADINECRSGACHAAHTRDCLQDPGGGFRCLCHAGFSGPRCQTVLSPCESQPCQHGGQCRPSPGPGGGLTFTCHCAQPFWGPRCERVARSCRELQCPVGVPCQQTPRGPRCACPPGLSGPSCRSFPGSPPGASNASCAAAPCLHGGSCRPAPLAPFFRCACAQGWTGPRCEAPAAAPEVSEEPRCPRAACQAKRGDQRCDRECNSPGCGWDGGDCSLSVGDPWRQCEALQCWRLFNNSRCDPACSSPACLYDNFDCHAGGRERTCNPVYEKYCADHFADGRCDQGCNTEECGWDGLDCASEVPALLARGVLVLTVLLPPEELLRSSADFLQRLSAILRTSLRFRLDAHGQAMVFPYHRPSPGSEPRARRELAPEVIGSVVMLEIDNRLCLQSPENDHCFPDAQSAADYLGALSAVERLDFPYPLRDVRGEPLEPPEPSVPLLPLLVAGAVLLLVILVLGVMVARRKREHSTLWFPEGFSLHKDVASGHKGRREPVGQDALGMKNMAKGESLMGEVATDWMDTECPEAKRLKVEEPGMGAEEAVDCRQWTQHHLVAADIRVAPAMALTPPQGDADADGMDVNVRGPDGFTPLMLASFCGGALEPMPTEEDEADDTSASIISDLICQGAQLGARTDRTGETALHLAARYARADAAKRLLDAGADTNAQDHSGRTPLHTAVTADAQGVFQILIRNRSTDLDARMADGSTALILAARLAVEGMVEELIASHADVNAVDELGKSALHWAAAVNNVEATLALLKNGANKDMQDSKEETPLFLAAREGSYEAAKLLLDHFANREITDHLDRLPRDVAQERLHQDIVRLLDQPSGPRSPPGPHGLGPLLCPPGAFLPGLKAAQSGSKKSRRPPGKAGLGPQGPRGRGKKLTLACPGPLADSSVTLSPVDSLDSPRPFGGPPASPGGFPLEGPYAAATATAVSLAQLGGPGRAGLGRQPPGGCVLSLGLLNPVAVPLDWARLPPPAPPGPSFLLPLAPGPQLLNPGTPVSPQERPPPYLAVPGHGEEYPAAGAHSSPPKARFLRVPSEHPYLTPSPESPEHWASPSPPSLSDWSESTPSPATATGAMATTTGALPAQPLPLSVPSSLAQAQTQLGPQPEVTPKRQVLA

[4] = target: Notch2 on U2OS Notch2-Gal4 luciferase reporter cells (human, UniProt Q04721 26-2471); assay: cell-based or functional assay
[5] = target: Notch1 on U2OS hNotch1-Gal4 luciferase reporter cells (human, UniProt P46531 19-2555); assay: cell-based or functional assay
Notch1 on U2OS hNotch1-Gal4 luciferase reporter cells, sequence (P46531 19-2555): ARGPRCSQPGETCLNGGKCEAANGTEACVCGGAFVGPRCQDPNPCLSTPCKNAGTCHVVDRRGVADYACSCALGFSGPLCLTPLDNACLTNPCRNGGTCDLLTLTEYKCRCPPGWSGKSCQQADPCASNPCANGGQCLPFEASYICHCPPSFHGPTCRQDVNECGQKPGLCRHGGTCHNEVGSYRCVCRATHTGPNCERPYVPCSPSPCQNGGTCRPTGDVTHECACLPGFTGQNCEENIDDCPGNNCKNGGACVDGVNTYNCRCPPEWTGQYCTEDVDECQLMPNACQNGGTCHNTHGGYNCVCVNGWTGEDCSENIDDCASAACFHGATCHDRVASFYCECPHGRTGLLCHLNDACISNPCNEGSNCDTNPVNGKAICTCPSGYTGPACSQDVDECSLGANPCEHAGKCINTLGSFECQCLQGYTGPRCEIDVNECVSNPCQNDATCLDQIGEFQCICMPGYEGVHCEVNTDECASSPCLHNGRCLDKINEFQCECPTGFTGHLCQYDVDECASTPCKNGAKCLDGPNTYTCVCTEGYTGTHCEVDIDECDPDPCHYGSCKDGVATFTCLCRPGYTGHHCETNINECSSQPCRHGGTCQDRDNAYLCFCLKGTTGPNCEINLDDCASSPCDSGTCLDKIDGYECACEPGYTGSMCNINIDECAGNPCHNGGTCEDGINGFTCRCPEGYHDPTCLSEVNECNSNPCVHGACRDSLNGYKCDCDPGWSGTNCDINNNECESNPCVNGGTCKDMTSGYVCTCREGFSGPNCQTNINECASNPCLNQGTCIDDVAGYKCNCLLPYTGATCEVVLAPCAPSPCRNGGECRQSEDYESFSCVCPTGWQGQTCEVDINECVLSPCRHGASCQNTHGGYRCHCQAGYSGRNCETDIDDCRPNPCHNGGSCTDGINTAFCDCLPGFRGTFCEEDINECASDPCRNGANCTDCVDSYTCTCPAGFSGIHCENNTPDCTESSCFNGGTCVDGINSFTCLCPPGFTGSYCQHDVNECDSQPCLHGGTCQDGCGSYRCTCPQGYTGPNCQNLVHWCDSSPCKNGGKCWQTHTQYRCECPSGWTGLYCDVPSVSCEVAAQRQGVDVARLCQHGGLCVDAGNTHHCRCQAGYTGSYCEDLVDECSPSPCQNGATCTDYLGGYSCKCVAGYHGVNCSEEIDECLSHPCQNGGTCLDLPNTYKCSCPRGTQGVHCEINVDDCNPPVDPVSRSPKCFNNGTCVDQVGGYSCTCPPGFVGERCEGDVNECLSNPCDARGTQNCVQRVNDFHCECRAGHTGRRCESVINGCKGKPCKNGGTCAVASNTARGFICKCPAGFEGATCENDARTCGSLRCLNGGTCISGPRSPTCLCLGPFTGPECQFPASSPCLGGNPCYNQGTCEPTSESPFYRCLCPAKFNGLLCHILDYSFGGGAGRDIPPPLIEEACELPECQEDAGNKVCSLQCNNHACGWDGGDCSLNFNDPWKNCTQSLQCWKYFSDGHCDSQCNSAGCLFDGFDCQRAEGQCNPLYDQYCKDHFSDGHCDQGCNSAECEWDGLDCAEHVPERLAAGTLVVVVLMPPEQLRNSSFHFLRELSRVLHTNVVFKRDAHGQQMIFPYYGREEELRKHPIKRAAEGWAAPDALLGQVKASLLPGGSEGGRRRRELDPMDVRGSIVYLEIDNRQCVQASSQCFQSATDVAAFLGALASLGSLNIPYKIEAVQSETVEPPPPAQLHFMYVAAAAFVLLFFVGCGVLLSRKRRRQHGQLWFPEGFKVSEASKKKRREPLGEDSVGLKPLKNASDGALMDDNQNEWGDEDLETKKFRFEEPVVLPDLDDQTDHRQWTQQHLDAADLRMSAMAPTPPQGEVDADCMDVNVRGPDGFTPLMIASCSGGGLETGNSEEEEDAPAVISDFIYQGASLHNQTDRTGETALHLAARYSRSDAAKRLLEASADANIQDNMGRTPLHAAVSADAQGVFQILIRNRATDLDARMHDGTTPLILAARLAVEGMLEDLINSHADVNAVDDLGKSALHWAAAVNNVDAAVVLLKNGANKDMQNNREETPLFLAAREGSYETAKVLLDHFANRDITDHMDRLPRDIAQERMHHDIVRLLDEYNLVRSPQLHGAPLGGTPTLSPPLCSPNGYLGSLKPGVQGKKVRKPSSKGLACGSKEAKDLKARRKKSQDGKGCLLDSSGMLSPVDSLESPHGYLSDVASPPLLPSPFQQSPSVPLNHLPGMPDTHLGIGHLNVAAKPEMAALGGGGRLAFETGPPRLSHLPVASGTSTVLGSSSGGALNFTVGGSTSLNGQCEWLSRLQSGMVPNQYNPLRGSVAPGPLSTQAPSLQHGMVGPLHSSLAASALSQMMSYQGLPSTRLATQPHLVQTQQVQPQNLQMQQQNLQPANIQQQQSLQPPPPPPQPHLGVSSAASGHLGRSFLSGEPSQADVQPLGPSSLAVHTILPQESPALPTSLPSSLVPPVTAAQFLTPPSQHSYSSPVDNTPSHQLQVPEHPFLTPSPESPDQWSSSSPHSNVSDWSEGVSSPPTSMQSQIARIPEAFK

[6] = target: T1, Notch1 on CHO-K1 N1-Gal4 fluorescent …; assay: flow cytometry, ligand tetramers on Notch1-overexpressing CHO-K1 N1-Gal4 cells

T1 sequence (P46531 19-2555 limits assumed): as the sequence (P46531 19-2555) above

B1: human wild-type DLL4 (N-EGF5, residues 27-400), non-biotinylated (ligand)
chain: SGVFQLQLQEFINERGVLASGRPCEPGCRTFFRVCLKHFQAVVSPGPCTFGTVSTPVLGTNSFAVRDDSSGGGRNPLQLPFNFTWPGTFSLIIEAWHAPGDDLRPEALPPDALISKIAIQGSLAVGQNWLLDEQTSTLTRLRYSYRVICSDNYYGDNCSRLCKKRNDHFGHYVCQPDGNLSCLPGWTGEYCQQPICLSGCHEQNGYCSKPAECLCRPGWQGRLCNECIPHNGCRHGTCSTPWQCTCDEGWGGLFCDQDLNYCTHHSPCKNGATCSNSGQRSYTCTCRPGYTGVDCELELSECDSNPCRNGGSCKDQEDGYHCLCPPGYYGLHCEHSTLSCADSPCFNGGSCRERNQGANYACECPPNFTGSNCEHHHHHHHH
EC50 of Notch1 activation, fluorescent reporter cells, ligand non-specifically adsorbed to plates [1]: 2.3 ng/mm^2

B2: DLL4.v1 (N-EGF5), non-biotinylated (ligand)
chain: SSVFQLQLQEFINERGVLASGRPCEPGCRTFFRVCLKHFQAVVSPGPCTFGTVSTPVLGTNSFAVRDDSSGGGRNPLQLPLNFTWPGTFSLIIEAWHAPGDDLRPEALPPDALISKFAIQGSLAVGQNWLLDEQTSTLTRLRYSYRVICSDNYYGDNCSRLCKKRNDYFGHYVCQPDGNPSCLPGWTGEYCQQPICLSGCHEQNGYCSKPAECLCRPGWQGRLCNECIPHNGCRHGTCSTPWQCTCDEGWGGLFCDQDLNYCTHHSPCKNGATCSNSGQRSYTCTCRPGYTGVDCELELSECDSNPCRNGGSCKDQEDGYHCLCPPGYYGLHCEHSTLSCADSPCFNGGSCRERNQGANYACECPPNFTGSNCEHHHHHHHH
notes: also called human DLL4 with the five E12 mutations (Site 1+Site 2)
EC50 (read off the curve) [2]: ~100 nM

B3: WT DLL4 (N-EGF5, residues 27-400), C-terminally biotinylated (ligand)
chain: SGVFQLQLQEFINERGVLASGRPCEPGCRTFFRVCLKHFQAVVSPGPCTFGTVSTPVLGTNSFAVRDDSSGGGRNPLQLPFNFTWPGTFSLIIEAWHAPGDDLRPEALPPDALISKIAIQGSLAVGQNWLLDEQTSTLTRLRYSYRVICSDNYYGDNCSRLCKKRNDHFGHYVCQPDGNLSCLPGWTGEYCQQPICLSGCHEQNGYCSKPAECLCRPGWQGRLCNECIPHNGCRHGTCSTPWQCTCDEGWGGLFCDQDLNYCTHHSPCKNGATCSNSGQRSYTCTCRPGYTGVDCELELSECDSNPCRNGGSCKDQEDGYHCLCPPGYYGLHCEHSTLSCADSPCFNGGSCRERNQGANYACECPPNFTGSNCEGLNDIFEAQKIEWHE
modifications: biotin on the C-terminal BAP-tag (BirA ligase)
EC50 of Notch1 activation, fluorescent reporter cells, biotinylated ligand on streptavidin plates [1]: 16 nM

B4: DLL4^MAX (N-EGF5, residues 27-400), C-terminally biotinylated (ligand)
chain: SSVFQLQLQEFINERGVLASGRPCEPGCRTFFRVCLKHFQAVVSPGPCTFGTVSTPVLGTNSFAVRDDSSGGGRNPLQLPLNFTWPGTFSLIIEAWHAPGDDLRPEALPPDALISKFAIQGSLAVGQNWLLDEQTSTLTRLRYSYRVICSDNYYGDNCSRLCKKRNDYFGHYVCQPDGNPSCLPGWTGEYCQQPICLSGCHEQNGYCSKPAECLCRPGWQGRLCNECIPHPGCRHGTCSTPWQCLCDEGWGGLYCDQDLNYCTHHSPCKNGATCRNSGPRSYTCTCRPGYTGVDCELELSECDSNPCRNGGSCKDQEDGYHCLCPPGYYGLHCEHSTLSCADSPCFNGGSCRERNQGANYACECPPNFTGSNCEGLNDIFEAQKIEWHE
modifications: biotin on the C-terminal BAP-tag (BirA ligase)
notes: Used coupled to streptavidin (plates, beads, or as tetramers for cell staining); also called biotinylated Delta^MAX; C-terminally anchored Delta^MAX; not shown: His-tag
EC50 of Notch1 activation, fluorescent reporter cells, biotinylated ligand on streptavidin plates [1]: 1.7 nM | Notch1 reporter activity with 25 µm coated beads, against DLL4 microbeads [1]: 4.5 fold | luciferase reporter signalling at 50 nM immobilised ligand, against WT DLL4 [3]: 3 fold | luciferase reporter signalling at 50 nM immobilised ligand, against WT DLL4 [4]: 2.5 fold | increase in Notch1 activation relative to control, Delta^MAX-coated streptavidin beads [5]: 21 fold | increase in Notch1 activation relative to control, oriented coupling on streptavidin plates [5]: 50 fold | luciferase reporter signalling at 50 nM immobilised ligand, against WT DLL4 [5]: 2 fold | fold increase of MFI compared to WT DLL4 [6]: 4.7 fold
